Measured values as given in patent US7419968B1, “Methods for treating therapy-resistant tumors” (Celmed Oncology (USA), Inc., priority 1999, dated 2008).

Substrate: O=c1[nH]c(=O)n([C@H]2C[C@H](O)[C@@H](COP(=O)(O)O)O2)cc1/C=C/Br
Assay: Enzyme kinetics of rHuTS with dUMP and BVdUMP
Format: biochemical, human
Conditions: other: rHuTS; 37.0 °C
Method: L. Enzyme Preparation. Cloned human thymidylate synthase plasmid pBCHTS was subcloned into E. coli. BL21 (DE3)/pET-28a(+) (Novagen) using the NdeI ñSacI insertion site, in order to add an amino terminal His tag. […] M. Enzyme Assays and Kinetic Measurements. […] Tetrahydrofolate stock solutions were prepared by dissolving tetrahydrofolic acid (Sigma) directly into 0.2 M Tris pH 7.5, 0.5 M-mercaptoethanol; stock solutions were stored at -80° C. […] N5, N10-methylene tetrahydrofolate was kept on ice and used within 2 hours of preparation. […] The catalytic efficiency of the enzyme (Kcat/Km) was calculated from the kinetic constants Km and Vmax.

B1: recombinant human thymidylate synthase (rHuTS) (Homo sapiens) (protein)
chain: MPVAGSELPRRPLPPAAQERDAEPRPPHGELQYLGQIQHILRCGVRKDDRTGTGTLSVFGMQARYSLRDEFPLLTTKRVFWKGVLEELLWFIKGSTNAKELSSKGVKIWDANGSRDFLDSLGFSTREEGDLGPVYGFQWRHFGAEYRDMESDYSGQGVDQLQRVIDTIKTNPDDRRIIMCAWNPRDLPLMALPPCHALCQFYVVNSELSCQLYQRSGDMGLGVPFNIASYALLTYMIAHITGLKPGDFIHTLGDAHIYLNHIEPLKIQLQREPRPFPKLRILRKVEKIDDFKAEDFQIEGYNPHPTIKMEMAV
notes: His tag (N); made in house; host or cells: E. coli BL21 (DE3), pET-28a(+)
Km: 16 μM μM
